Test results published in a protein production outcome set (Wang et al. 2014).

Experiment: label from the status in PepcDB records

Row | Sequence | protein production
1 | MKYQNEGQHRSPWALIVFLALSMAVTSPATRAQSSDLPSIGGSGGLISGQMEADIGQQVMASIRRSAPQLQDPLVYDYLSAIIYRLVPSAPLDNRDLKLVLIDSPAINAFAVPGGVVGVNGGLFLNAATEQQFASVLAHELAHLSQRHFARRMQQQETSAPLTLAGMIAGIVLSAVTQSDIGIAAIAGTQAMAVQNMLAYSRSHEQEADRVGMDILASAGMDPRGMPEMFEIMMRQNRLQGNRLPEYLSTHPLTQNRVADTRNRAEQYPDTRVQDGQEYHLVRSRLQVHYSESPETAIETFEAYLAREDAQRNDAIRYGLAVAYQESRRYEKAEQLMRELLKANPGRITFQVSLAEVLLSQKRYADARALMQEALARNPGNYPITSTLAAIEIADGNGAAAADYLRELTRRLPSQEQLWLRLAEAEGMARNIVGVHRARAEYDVLMGDLKSAQRQLRQAQEKLPAGSAERQVVSERLGELTNRLQAREAG | failed
2 | MNYAEKKKNWIKLGIFALFAGGILAYIGISNADIHWGGFISMMIFFAFTYYLGAFYAAKKSNSFSDMIVAKRSMPFFVGMVTMAATWVGGGYINGTAESTYSDGLIWAQAPWGYALSLIIGGIFFARKMRRHQFMTIIDPLEQRFGKRMAGVLYIPALLGELFWSAAILTALGTTFGMILNIDFQTSIILSAMIAIAYTVAGGMWAVAFTDVFQMIVILLGLFLVVPFVLSNVGALDSVWANYRHDFGSSANLLPPLDGWKNPDWGNLFWNWWDNALLLIFGGIAWQVYFQRVLSAKSESAAMWQSIIAGVICIIAAIPCVIIGAAGNSTDWSLFGASAPDNPAMILPQTLAYLTPGIIAGLGLGAIAAAVMSSMDSSILSASSMAAWNIYRPLIKPKATQKQLQKVVKRSIILFGAGAAVIALNVKSVYTLWYLASDLVYCILFPQLTMALFYKRANLYGSIAGFAVAVILRLGGGEPAFGIPPLLPYPMIEDGTVLFPFRTLAAVTAFMTIFAVSELTQRKCPPKQLVLPQEKQKDDRAA | failed
3 | MAAWRAEARRLAQAGVPAESVVWRVGAGEADLFADLPALPAGPARQIRLSREAVGSLETALCHADPERFGRAYGLLLRLADGTLRWGDRSDPALRKLLAQEKMVRREIHKMHAFVRFRELPSEGPRRAFAAWFEPDHPVEEAATPFFARRFGDMDWAIVTPEVTARFVAGQLDFALTEERTAPPADGTEELWRTYYANIFNPARLMVKAMQSEMPKRYWKNLPEAELIPGLIRGAAERAAEMQAAAPTEPPARTAAVARQRAAAAGGPAAAGDGSAPGTLAEAKTAAEGCRRCGLWANATQVVFGEGPATARMMIVGEQPGDREDLAGRPFVGPAGQLFDEEAAAAGLDRGSVYVTNAVKHFKFAPRGKRRIHQKPDAGEVTACRWWLDLERDLVRPRLIVAMGATALASLTGSGAGILKRRGSVERLDDGTPVFVTVHPSYILRLPDEAARVEERRRFRDDLQAARQLLERLD | failed
4 | MMIDPELRPAFLPAGKLRAAINLGNPILAGTDAAGQAVGVSVDLAREFARRLNAGIELRVFDTAGQSVDAVTREEADIGFFAIDPARGAGIAFTGPYVLIEGAYLVRDDSPLQANEDVDRAGKRVTVGKGSAYDLHLTRALQHAEIVRAASSQAVVDTFLARRLDVAAGVKQQLQADARRVGGVRLLPGRFMVIRQAMGLPKARGDAAAACLDAFVESMKGNGFVAQALARHGIQGASVAPPGRDG | failed
5 | MKIGDKVRFLSEVGGGIVTGFKGKDFVLVEDADGFDIPMPIRECVVIEADDYNIKRKPAATAPKQEEPAKPAKPEMPVIQRQPEVRGGDTLNVFLAYVPEDAKAMMTTPFEAYLVNDSNYYLYYTYLSAEGKAWNNRSHGLVEPNTKLLLEEFTKDVLNEMERVAVQLIAFKDGKPAAIKPAVSVELRIDTVKFYKLHTFSASDFFEEPALIYDIVKDDVPAKQVYVSAEEIQSALLQKKFVDKPKSQPIMKPNHGQSGKNGIIEVDLHIDSLLDDTHGMSNSEILNYQLDKFREVIEANKEKREQKVVFIHGKGDGVLRKAIIDELKRKHSNYRYQDASFQEYGFGATMVTIK | not failed
6 | MSATRHRSDGHEEIVALDALPLSAAIRRRELSCREVMQAYLAQIERFNPRVNAIVSLQAESRLLTQADERDRQLARGEWLGWMHGMPQAIKDLAATSGIPTTLGSPLFAGQVPEHDAIVVERVKSSGAIVIGKTNVPEFGLGSQTYNPLFGTTRNAYDPARIAGGSSGGAAVALALRMLPVADGSDMMGSLRNPAAYNNVYGFRPSQGRVPHGPQAELFVQQLATEGPMGRSVADLARLLATQAGYDPRCPLSLRDDPRRFADDLGRDFRGARLGWLGDYAGYLPMEEGVLELCEAALGDFAELGCDVEACLPDYPLERLWRTWLVHRQWLVQGSLGELYADPARRVRLKPEAQWEVESGLGLGAAEVYRASLDRSDWYRALARLFERYDFLLLPSAQVFPFDAETAWPRQVAGRPMDTYHRWMEVVIGPTLAGLPAISVPIGFGAAGLPMGLQIIGPAQADLAVLQLAHAHEGLTRWVSRRPPAMLEAPGGI | failed
7 | IQPTYTSTTRIYVVNQATDNNNLSAQDLQAGTYLANDYKEIITSNDVLSEVIKDEKLNLSEAELSKMVSVNIPTDTRLISISVNAKTGQDAQTLANKVREVASKKIKKVTKVEDVTTLEEAKLPESPSSPNIK | failed
8 | MAGALITASAACAEDAPDFRLDLDTGGHTARIARLAFTPDGEDIVSASDDKTIRIWDWQSGVTLRTIRGYLGNGSDGKIFAVSVSPDGKTIAAGGYFGAGLGDKPPYGDIRLFDFATGKMKAVLRAADYATYDLAFSPDGKTLAAGGGDGMVYLWRLDDKSATGWTLDKKLDADSWHIDKLAFAAAGTRLAATTTDNGIRLWDVAKGEEIALPDEAEPLRDVSVLALAISQDGSLFATGSKDGQVQLWRAADGTLVHAMPKQDFLIGSLTFAKGSRLVASCGYRCADKHRSIVWNTDSGEKLLDYSGHDGTVYASAANADGSLVATAGGTRNAIQVWDPATGERKALLQGVGEPVTAIGIDAANGIIAWGNTNPCPERVACPEQLGALDKRLELPTTERFFDDPQPLTEPGSFARAAQSDGEWSLHATKGGKDALENAVLEIANGGKVVRSIENDATNGFAHSAFTLIDNGLGLITGGNDGTLLEYKAATARVSGEFTGHTGEINAMAASEKAGLLVTGSADQTLRLWNLKTHELIVSMFFAGPQWIAWMPQGYYYSSDEGDKLIGWHVNQGRDHEGRFIRAGQLKKYLWSPEMVRRAIILRSAKQAVKEMRPGVDNELQKLLQRKPPEFGVRLADDQSKVRDGYVAVEITGAKEAGTDVAGFSILSNSRNVGDIATRSAEGDKTTVEVPVENGQNTIRITGTNEYGYLTERSVTALARKTEKAEAKGKLYVAVIGVDKYPFLTDACSGHACDLRYPVDDATEFLEVVAQKSAPLFSSMETLVLVNREALDESPDKAKQTYTVASADNIMEPDSHTIDDQLADFLDRPGEHDTTIVFVAGHGINIDEDYYFIPTDGRKQDADRWKRSSLVDWGDIQKSVERAKGMRFMLLDTCHAANAFNPRLEKDAQDARIVVFSATAANNTAAELPELGHGVFTYSILEGLRGKARTSDGGITLFGLADFISHEVVRLTASKQKPFYYVGGVENIVLAEP | failed
9 | MDDETLRLQFGHLIRILPTLLEFEKKGYEPSLAEIVKASGVSEKTFFMGLKDRLIRAGLVKEETLSYRVKTLKLTEKGRRLAECLEKCRDVLGS | not failed
10 | MTGVLSGMAKTYLEFSDPNGAEHKFYEVTVDGPELTIRYGRIGTDGQRSTKTFPDAAVAQAEADKKIREKRKKGYEDAVMGARQKRTVVRREVTETRSTTRQIAPVLWRFKTRSAAYGIFVDQNTAWVGNDSGEVFALTLSGEVDRSFRLPDGVKCLVSDQFRTFAGCDDGNVYDLSGKLPFMAYEVESKAALLWLDLHGGTLGVSDSGGGVYAFDAESDQQWGHTDDRASMGWMVRVDARGVYYGHSRGVGMFDRESGFPNWHRPTRGSVLFGWQEGNDLYAGTSANLIQRFTKAGEHVQDYQCDGSVLSCAASPGGEFVFAGDSGSAVYCFNRAGERLWKLGTGCASALSMQFAADKLYIVTTNGTLAAIDVSPAAIEAARQGTTPEVRDVKLAAAMPAQAPATELTVTRNASGGVLLRGVQEGSKVRIRPDDSRFHKDWNVQFPRNLRAADGLYVVDDLEDAGGFYRVVGDLRRLENLEHHHHHH | not failed
11 | MSSAIRKAAKGGQCTPNIAGVCNDNPETVVLCRFPGETHGAGLKSGGLGAGFGCGCRRGAIDGRGAGLSREDKEFYMRRSQLRTIRRLEALGVVGVKGRLK | failed
12 | MGNHKAALTKQVFTFASELYAYGVREVVISPGSRSTPLALAFEAHPNIKTWIHPDERSAAFFAVGLIKGSERPVAILCTSGTAAANYTPAIAESQISRIPLIVLTSDRPHELRSVGAPQAINQVNMFNNYVSYEFDMPIADDSKETINAIYYQMQIASQYLYGPHKGPIHFNLPFRDPLTPDLNATELLTSEMKILPHY | failed
13 | MSLEAIHRSTRIEFSKSSLAYNVQYTKQVSGAKTLWLAVKSNAYGHGLLQVSKIARECGVDGLAVSVLDEGIAIRQAGIDDFILILGPIDVKYAPIASKYHFLTTVSSLDWLKSADKILGKEKLSVNLAVDTGMNRIGVRSKKDLKDEIEFLQEHSDHFSYDGIFTHFASSDNPDDHYFQRQKNRWYELIDGLIMPRYVHVMNSGAAMYHSKELPGCNSIARVGTVVYGVEPSEGVLGPIDKLKPVFELKSALTFVKKIPAGEGISYGSKFVTSRDTWIGTLPIGYGDGWLAEYQDFQLLIDGQKCRQVGQIAMDQMMVALPHEYPIGTEVTLIGKSGKYENTLYDLHKHSGVPPWKITVAFSDRLKRMVVDEGHHHHHH | not failed
14 | MMYFGIIPLILFIIFLISYLKDPRKIINGFLFNAFICFFLLFCVIVSLNSDSDVLRYIIFLPFLALLIMLPFGIVALMFGLFLNARILMKREGRRFTNCLTLLAALGMLFFMLLPIINPASLVSSHLEPIFAAISLISIYFFIHLSNFLSAYFLYQFNRPRRNQDFIIVLGSGLINDKVPPLLASRINKAIDFYWKQAAVNTPPTIIFSGGQGPDEGLPEAEAMQNYAVEKGIPIEHTVQENRSVNTYQNMLFSKEIMDSLKPEGKYKSIFTTNNFHLFRAGIYARQAGLNSQGIGSKTAFYYWPNAMIREYVAIVVMGRKRHMKICGTILGFAVFVSILSFIFS | failed
15 | MNITVNDRECSAQVGDRLLDIARANHSHIGYFCGGNAICQTCYVRVLEGAELLSPMSDAEKAMLSDKLIKEGTRMACQTLIEKPGKITVLSEVEAAKRLTLENPLEHHHHHH | not failed
16 | MGVLTTFISQKALVGGYDNTIEPGVVILSGATITCNVSIGQGTFINKSTVISHDVRIGRYCEVSPGAKVLGRAIIGDRTEIGANAVILPDVIVGADCKIGAGAVVTRNIDSHTTVAGVPARSITKSSNNAFKLKSKIRNLLYHIRIADFRKLREYNHYVFGLEHHHHHH | failed
17 | MLFQDDKGVGVAIYRRRFTVLGCASSPGVPRINGDWGACDPQNPRNRRTRAAFMVEQIGPDGGKTTVVIDTGPDFREQMIAAKVQAVDAVLYTHAHADHLHGIDDLRIYFALQKSRIPIWADPVTMARIRDGFAYCLETPAGSNYPPIVRPQLIADINDPVIIDGAGGPIPFKVHMQQHGDVHSLGFRIGDVAYCTDVSDFPAESLPKLTGLDVLVIDALQYRYHPSHLSLEQALGWIEALAPKRAILTHMHIPLDYDTVMRETPDHVEPAYDQMRFEVEIEAP | failed
18 | MSQSLIAALQNPALFPHPVESFQVIETHISWVLLTGPYAYKFKKPMNFGFLDFTTLALREHFCQEELRLNKRLTDDMYLEVLPITGTAQAPQLGGDGDVIEYALKMKQFSQDGLLSTLQANGELTTAHIDELARQIADFHLDSPHVTAESELGSPDSVMAPVVQNFEQIRPLISEKSDLEQLDALQAWAESSFERLKPLLAQRKADGFIRECHGDIHLGNATVIDGKVVLFDCIEFNEPFRKTDVYADIGFLAMDLEDRGLKSLSRRLVSQYLEVTGDYVGLELLNFYKAYRAMVRAKVALFSQPADADGVQRAATLRQYRNYANLAESYSAIPSRFLTITHGVSAVGKSHVAMRLVESLGAIRLRSDIERKRLFAEGGEDLYGDEASSATYARLHELAGKTLRAGFSVVIDATYLKREQRDAAAKVAENTGVPFLILDCEAPQAVIASWLAQRQAQNNDPSDATLQVIEAQQASRELLSADEVLCSKKVATNIGSDLDSLVDNLRQRLPGLLEHHHHHH | not failed
